The results in this text go back to paper PMC4069162.

What all share (assay): cross-linking; in vivo cross-linking with DSP in S. enterica ATCC14028SΔacrABΔmdsABC::Cm5ΔtolC::Tn10 cells coexpressing MdsA-flag, MdsB-myc and MdsC-hexahistidine (grown to OD600 = 0.8); MdsC-His isolated on a Ni-NTA resin column, cross-linked MdsA detected by anti-flag immunoblot
Background: A western blot detects proteins with antibodies after separation by electrophoresis.

The target in assay [1] is MdsC with a c-terminal hexahistidine tag (wild type) (Salmonella enterica serovar Typhimurium ATCC14028S).
For assay [2], the target named is MdsC-G220A with a c-terminal hexahistidine tag (Salmonella enterica serovar Typhimurium ATCC14028S).
Assay [3] concerns the target MdsC-G433A with a c-terminal hexahistidine tag (Salmonella enterica serovar Typhimurium ATCC14028S).
Assay [4] deals with MdsC-L441R with a c-terminal hexahistidine tag (Salmonella enterica serovar Typhimurium ATCC14028S).

“MdsA-S146D with a c-terminal flag tag (from UniProt A0A4P7XPD4 1-408) (natural protein)” returned a crosslinking to MdsC, percent of wild type in assay [1] of 16%.

As to “MdsA with a c-terminal flag tag (wild type) (from UniProt A0A4P7XPD4 1-408) (natural protein)”, the figures for the MdsA crosslinked, percent of that with wild-type MdsC in assay [2], in assay [3] and in assay [4] were 20%, 39% and 16%, respectively.
